Reference: the DeepSol protein solubility set

Assay: soluble on expression in E. coli; label from the status in PepcDB or PDB records

Sequence	soluble on expression in E. coli
GPGSMAPNQFVELVDTVEKYATRGSNECGCRIDTREESIPSNTLVGYPFANAEGVGVHLSYRKGDITLSADVSSNPKATWRDVLPTFSWTRSLRGQQHEVLLRLAMTPLFAYSFSHPQFTCSSEVNFMDGFRSKFTTSTQLSMRNQLGACVEYDPSRSGVIDYTVAFLRAGCSAVLGGDFVVQYNATRGLGVHTRIPVKPFMGAVALVERGRVIIGTEARSPCGAQMMMNLDLVNSRVMLAVVRNISTVWKFTFNYSAPLPGTSSAARRFGLVFTSQDAP	not soluble
MLLGMSLEELTTVALRMGMPRFAGKQLAEWIYVRRATDFAEMTNISQANRQKLAEIYDLGRYPWSDVQCSVDGTKKYLFPVGEGRFVESVLIPEGDRATLCISSQVGCKMDCLFCMTGKQGWNGNLSAAEILNQIFSVDEAAELTNLVYMGMGEPLDNTDEVLRSIEALTEPWGMGWSPKRITVSTIGAKGLERFLAESRCHLAVSLHSPFPEERRKLMPGEKAFPIMQTLDRIRAYDFSGQRRVSFEYIVFDGLNDDMRHADELAAILRGIPCRINLIRFHKIPAVSLRSSDTARMEAFRKRMESHGFTCTIRASRGEDIFAACGMLSTSKAESSEEKSS	not soluble
ATDVIAQRKAILKQMGEATKPIAAMLKGEAKWDQAVVQKSLAAIADDSKKLPALFPADSKTGGDTAALPKIFEDKAKFDDLFAKLAAAATAAQGTIKDEASLKANIGGVLGNCKSCHDDFRAKKS	soluble
MGSDKIHHHHHHMLSRTADNLYWMTRYVERAENMARILDVSYRMSQLPRNGTDAAVEWEPALIISGQKPDFETRFEEITAGNVIAYMALDPENPSSIVSTLHAARENARAERFVLPQEMFEGLNATWLELQSLSYARLVDWGFREFFEWVKERSHQFLGTTIGTMLQTDGFHFTRLGTFIERADNTARLLDVKYHVLMPDENRLDEAVDYYQWGAVLRAMSALKAYRMVYRDTIKPRQVIDLLTLKREFPRSLHLCYENLHDLLEHLAPGAECTRLTGEMHAKLRYGRIQDITRRGLHRFLTDFITHNAAVSAEIGRTFHLVADIGVQTPVKEAKEAKRADDGGEAEEAGSVQQQRQ	not soluble
MSLADSTELTTSATLGAQDAMAFGISEDPAFFQILSANLYSNQKLAMVRETLCNSWDAHIEGNKTDIPIHVTIDKDGFLIFRDYGSGIPKDKIQEVYGVYGASTKKANTASTGGFGLGCKSPMAYTDSFTVTSMCDGTKTVYHIAKSSVETNGKPGIIPIVSVPTEESGLEVKIQLQSEDILEIDSYIRAIVLHGEIKCIYCNQYTGPNTVELLPVLGMSFEPGSYNLDHSTWHKYYMGGHSIFIRYGNVMYPALDTPATHEALKLVKQFMQVINCSRIVVQAAPSSLAVAPSRETLSSQKMTEDGIVNLAVALVDKMEADIKARLPNAIEYIGKAIKEYSPHRFEVNSYLPYTNLVPDVIVSRYMSSTLFSKQYAHLCKKWGNMEIDRQLEHPALAHFSGEGHHHHHH	soluble
MTDTIKIYHNPRCSKSRDTLNLLKSNGVEPEVVLYLDTPADAATVRELLRMLGMSSARELMRQKEDLYKTLHLADSELSEEALIQALVEHPKLMERPIVVANGQARIGRPPEQVLDILG	not soluble
MAHHHHHHMDQSRHKRTARHQYLGARTKITLKLQLTRIQHRGFHVHVHSRTTPLDRQAHEDALQQRDVECLLWRVKMQQIQQNRSGEGHVDKAQTTHTGIRIVHGADPATVNAAGLRVLRIGERERPKTVRNRSWQTRVTVAASSTHALTAADAARPRSEAHGVHSARATVQHRHGRPNIEVDSVIRHRRAS	not soluble
MEQVFAPWRIEWVERDDTTDDDVDCVFCAFPGREHARQHLVVARTDHAAVMLNNYPYNPGHCMVIPDVHTGDYGDLDADTLLDHARLKQATLDALDAALGPDAFNTGLNLGGGAAGGSIGDHLHTHVVPRWNGDTNFMPVISDTKVIVEALDDTYDRLHDAFLARPDATEAPTGAVFVDFNLEHHHHHH	not soluble
MGSDKIHHHHHHMSIKSDKWIRRMSEEFGMIDPFEPNQIKEADGQRIISYGTSSYGYDIRCANEFKIFTNINSTIVDPKNFDPKNFVTVEDDCCIIPPNSFALARTVEYFRIPRNVLTVCLGKSTYARCGIIVNVTPFEPEWEGYVTLEFSNTTPLPAKIYAGEGVAQVLFFESDEVCETSYKDRNGKYMGQTGVTLPKA	not soluble
SSCTIEKILTDAKTLLERLREHDAAAESLVDQSAALHRRVAAMREAGTALPDQYQEDASDMKDMSKYKPHILLSQENTQIRDLQQENRELWISLEEHQDALELIMSKYRKQMLQLMVAKKAVDAEPVLKAHQSHSAEIESQIDRICEMGEVMRKAVQVDDDQFCKIQEKLAQLELENKELRELLSISSESLQARKENSMDTASQAIK	soluble
MGSDKIHHHHHHMTTFHDLPLEERLTLARLGTSHYSRQLSLVDNAEFGEHSLLEGWTRSHLIAHVAYNAIALCNLMHWANTGEETPMYVSPEARNEEIAYGSTLNPDALRNLHEHSVARLDVAWRETSEDAWSHEVLTAQGRTVPASETLWMRSREVWIHAVDLGAVATFGDIPEVILRTLAAEITQKWTSQGAGEGLVLLDEPSSTRYPAAPGQDEVVVSGSLAGIVRYAAGRGSDGVTSSTGEVPEPPRWL	not soluble
MKAVSPVRPSGRKAPSGCGGGELALRCLAEHGHSLGGSAAAAAAAAAARCKAAEAAADEPALCLQCDMNDCYSRLRRLVPTIPPNKKVSKVEILQHVIDYILDLQLALETHPALLRQPPPPAPPHHPAGTCPAAPPRTPLTALNTDPAGAVNKQGDSILCR	soluble
AHHHHHHGSISETIRSGDWKGEKHVPVIEYEREGELVKVKVQVGKEIPHPNTTEHHIRYIELYFLPEGENFVYQVGRVEFTAHGESVNGPNTSDVYTEPIAYFVLKTKKKGKLYALSYCNIHGLWENEVTLE	soluble
MGSDKIHHHHHHMATENALYEILTEKIKQDTLVLPTLPEVALKVRSAADDPDINLNQMSDIIAHDPALSLGMLKVANNALMGRSIKVETVPQAVTRIGLIQIKSIATAMAIEQVFVSNNDVVAMYMNKAWVKTIDIASVAISLMNIYLKENKHTSLSLDTITLASLIHNIGVLPILTEAENHPDVFANPTFLQQAIIKLSGRVGGAITRKWGFSEEFTLLAESWSDLTILPSEVHYLDFIRAGAIYHNVFKNESTKVALLNNYTKKGILPEVDYMDSDEFKGMCEDVRAMFI	not soluble
MGLGRVITRSLSSVEPALSQKLTIQPAIERSPTDLLNALSETVGPDTTAPHFAYIDDPITIPSTQSTKKTYFMAKEFGKRAARELATEWPTLFAFDRDQPQLPVFRPRHLADPLQVEPTENNLLKMISSREVKDSCILYERMRSENVDVSEKVQLELFRLVTYYNSSNVPFAEWEEFVGMRNFGEDSTSSWKSGAVADLLFETLPKTDETVSIMIAGLCKFSDHSSLERARELYKEHRAAKGKVYREAFNGLIGASSYSVGKKLVAEMISLRMTPDIFTFNALLSSAAKAGKFEDRVKAFTEIIGEMKEIGVEPALSSFHLIIKNIIDFKLLDNEKRESDEQKKTYNHQLTVAISWLNEIQNSLTGKTLKPITSTCNLFFVEAMGIHYRAANENLAENLVSIYESKANEVKMPAFTIESMFYNRQLQLAVEQSASLNRIYDLYTTMVPRLVGVNNYLSSLVFRKLAASSDRHWPLLRRVIIDGIAAGQMNGVIGEEMRKQLCNVQLHTLGTSEREQFTSLVQKLVAVWVEFSQFTEERMRRLQRKLSPSQISECALLLTRIGEQQKAYELLDLLLDETASSGDEATVYPRGHARPWAMAELFEDALRKRDTYAAATCLQIMSLTANRAKLEPLANRIFEKCNVNQEQVRIIQGFIRLRPQ	not soluble
MQTLGFRRPNQVREAVYRHLKDLLLSGRFSPGERLSEPLLAQELGVSRTPVREALMRLAEEGLVELVPGKGARVRVFAPEEVEEVYGVRALLEGEAAREAALRATPWELAELERLLQAIDEAPREDYPEQMRRDLEFHRALVRLSGNRTLYRLYEDLLATLALARSALPTLSQDEATRREHRAILEALLRRDPEEARRAVEAHVFRFRDLVVGRLREEGG	soluble
MAHHHHHHMNESVEQLFDELISDFNKNDKIGEGNESFNIREKVGNKWTNEDILNNINKNDFSKYTEYSLSSLYITDERIHIDEDNKFQDFLNVITKASDVNNIYKWIDSYYKYDSKEELDILSPKAQKKEYIFREYLEPFHLKGLCLLRKYEKGAILKSSEKSKVDVNIVSEYIVHNTYKQIMKSFGYYLSHKIYIKAHIFHNKYGNSDHIIVLILQHFKDENFKQPLFHDRALVQIKSYSNDNKYSELTQKNLLHYAEIFKPFVSLRKLNYNFVEEFKDKIMFGI	soluble
MPGAAAKGSELSERIEGFVETLKRGGGQRSSEDMARETLGLLRRLITDHHWNNAGDLMDLIRREGRRMTAAQPSETTVGNMVRRVLKIIREEYGRLHGRSDESDQQESLHKLLTSGGLSEDFSFHFAPLKANIIEAINELLVELEGTMENIAAQALEHIHSNEVIMTIGYSRTVEAFLKEAARKRKFHVIVAECAPFCQGHEMAVNLSKEGIETTVMTDAAIFAVMSRVNKVIIGTKTILANGSLRAVAGTHTLALAAKHHSTPLIVCAPMFKLSPQFPSEEDSFHKFVAPEEVLPFTEGDILEKVSVHCPVFDYVPPDLITLFISNIGGNAPSYIYRLMSELYHPDDHVL	not soluble
TKAVHTKHAPAAIGPYSQGIIVNNMFYSSGQIPLTPSGEMVNGDIKEQTHQVFSNLKAVLEEAGASFETVVKATVFIADMEQFAEVNEVYGQYFDTHKPARSCVEVARLPKDALVEIEVIALVK	soluble
MCLIAFDWQPDAAAGPVFTLIANRDEFFRRTSAPLSWWEDVPGVLAGRDLEAGGTWLGVSRDGRFAALTNYRAPFDIRAGAPTRGKLVSDFLGGPPVAPLDYLGALAEHSAVYNGFNLLVGDWKRRELAWFCNRAAEGETAVAPPVAVSAGVHALSNARLDTPWPKIVRKRAELGTLLTDNPTPSLDELIELMRDPRVADDDALPHTGIPIERERALSAAFIETPEYGTRGTTALRVTMKEGVRLTVDIKERCDDDGSHRTVRPGTFERAFTFDIDATQPRLEHHHHHH	soluble
MPNIVLSRIDERLIHGQVGVQWVGFAGANLVLVANDEVAEDPVQQNLMEMVLAEGIAVRFWTLQKVIDNIHRAADRQKILLVCKTPADFLTLVKGGVPVNRINVGNMHYANGKQQIAKTVSVDAGDIAAFNDLKTAGVECFVQGVPTEPAVDLFKLL	soluble
MKYYRRALYDKFVHFYLVISDDGSSEAQLRGKMGGLVRKARKKISPDWPKEEQIHQLLQLFYGDWGFHCDPEDYFYARNLYLPYVFEHRQGMPVTLGAMVFYLAEALDLPIYPVNFPTQLILRAEVRDEVAFIDPWDGTYISQEKLQQLYEGAFGFGAKIQPEELDRADLSLLYSRFEQLAKNALIREEHNDMAYHYIKNLMITDAENPYHIRDRGLVLAQMGAYPSALKDLEFFVEHCPKDPTAAFIRTQLLELKGEINKDTFPLHLEHHHHHH	not soluble
MKEGKWFASANNQNKFLDPRERGNILNYLKVCLLLARAVRRMHAAGLCHSDLSYKNVLIDPEQGHACIIDVDGLVVPGKFPPDVVGTPDFIAPEVVKTSHLLKEDPQRILPNITTDRHALSVLIYMYLFYRHPLRGGKIHDMDDEVRDESLAMGERALFIEHPTDRSNAVKLNQVKPSSLPWADPQKVPYTIMGPYLTQLFEKAFIDGLHDPSKRPTADEWETALVKTVDLIQPCQNTACEQKWYVFSGKTKPVCPYCLEHHHHHH	not soluble
